Assay results as given in patent US20230212319A1, “NOVEL ANTIGEN BINDING DOMAINS AND SYNTHETIC ANTIGEN RECEPTORS INCORPORATING THE SAME” (University of Southern California, priority 2020, published 2023).

B1: SEQ ID NO: 22098: FHVH attached to TCRg-6MD via IgCL linker and second FHVH attached to TCRd-6MD via IgG1-CH1 linker (protein)
chain: MALPVTALLLPLALLLHAARPQVQLVESGGGLVQPGGSLRLSCAASGFTFTNHAMSWVRQAPGKGLELVSSISGNGRTTYYADSVKGRFTISRDISKNTLDLQMNSLRAEDTAVYYCAKDGGETLVDSRGQGTLVTVSSLEGQPKANPTVTLFPPSSEELQANKATLVCLISDFYPGAVTVAWKADGSPVKAGVETTKPSKQSNNKYAASSYLSLTPEQWKSHRSYSCQVTHEGSTVEKTVAPTECSPIKTDVITMDPKDNCSKDANDTLLLQLTNTSAYYMYLLLLLKSVVYFAIITCCLLRRTAFCCNGEKSRAKRSGSGATNFSLLKQAGDVEENPGPTSMDWIWRILFLVGAATGAHSFEEVQLLESGGGLVQPGGSLRLSCAASGFTFSSYAMSWVRQAPGKGLEWVSSISGSGDYIYYADSVKGRFTISRDISKNTLYLQMNSLRAEDTAVYYCAKEGTGANSSLADYRGQGTLVTVSSTRASTKGPSVFPLAPSSKSTSGGTAALGCLVKDYFPEPVTVSWNSGALTSGVHTFPAVLQSSGLYSLSSVVTVPSSSLGTQTYICNVNHKPSNTKVDKRVEPKSCEVKTDSTDHVKPKETENTKQPSKSCHKPKAIVHTEKVNMMSLTVLGLRMLFAKTVAVNFLLTAKLFFLRAKRSGSGVKQTLNFDLLKLAGDVESNPGPSRGHMTEYKPTVRLATRDDVPRAVRTLAAAFADYPATRHTVDPDRHIERVTELQELFLTRVGLDIGKVWVADDGAAVAVWTTPESVEAGAVFAEIGPRMAELSGSRLAAQQQMEGLLAPHRPKEPAWFLATVGVSPDHQGKGLGSAVVLPGVEAAERAGVPAFLETSAPRNLPFYERLGFTVTADVEVPEGPRTWCMTRKPGA
B2: CD8SP-BCMA-FHVH-93-G4S-CD19-MOR0028-scFv-hCD8TM-BBZ-T2A-PAC (protein)
chain: MALPVTALLLPLALLLHAARPACEVQLLESGGGLIQPGGSLRLSCAASGFTFSSHAMTWVRQAPGKGLEWVSAISGSGDYTHYADSVKGRFTISRDNSKNTVYLQMNSLRAEDSAVYYCAKDEDGGSLLGHRGQGTLVTVSSGTGGGGSGGGGSGGGGSEFINIYNAEPANPSEKNSPEFDIVMTQSPATLSLSPGERATLSCRSSKSLQNVNGNTYLYWFQQKPGQSPQLLIYRMSNLNSGVPDRFSGSGSGTEFTLTISSLEPEDFAVYYCMQHLEYPITFGAGTKLEIKGGGGSGGGGSGGGGSEVQLVESGGGLVKPGGSLKLSCAASGYTFTSYVMHWVRQAPGKGLEWIGYINPYNDGTKYNEKFQGRVTISSDKSISTAYMELSSLRSEDTAMYYCARGTYYYGTRVFDYWGQGTLVTVSSTRTTTPAPRPPTPAPTIASQPLSLRPEACRPAAGGAVHTRGLDFACDIYIWAPLAGTCGVLLLSLVITLYCKRGRKKLLYIFKQPFMRPVQTTQEEDGCSCRFPEEEEGGCELRVKFSRSADAPAYQQGQNQLYNELNLGRREEYDVLDKRRGRDPEMGGKPRRKNPQEGLYNELQKDKMAEAYSEIGMKGERRRGKGHDGLYQGLSTATKDTYDALHMQALPPRSSGSGEGRGSLLTCGDVEENPGPHMTEYKPTVRLATRDDVPRAVRTLAAAFADYPATRHTVDPDRHIERVTELQELFLTRVGLDIGKVWVADDGAAVAVWTTPESVEAGAVFAEIGPRMAELSGSRLAAQQQMEGLLAPHRPKEPAWFLATVGVSPDHQGKGLGSAVVLPGVEAAERAGVPAFLETSAPRNLPFYERLGFTVTADVEVPEGPRTWCMTRKPGA
B3: SEQ ID NO: 22099: FHVH attached to TCRa-wt2-opt-6MD via IgCL linker and second FHVH attached to TCRb-wt2-opt-6MD via IgG1-CH1 linker (protein)
chain: MALPVTALLLPLALLLHAARPQVQLVESGGGLVQPGGSLRLSCAASGFTFTNHAMSWVRQAPGKGLELVSSISGNGRTTYYADSVKGRFTISRDISKNTLDLQMNSLRAEDTAVYYCAKDGGETLVDSRGQGTLVTVSSLEGQPKANPTVTLFPPSSEELQANKATLVCLISDFYPGAVTVAWKADGSPVKAGVETTKPSKQSNNKYAASSYLSLTPEQWKSHRSYSCQVTHEGSTVEKTVAPTECSGRADCGFTSESYQQGVLSATILYEILLGKATLYAVLVSALVLMAMVKRKDSRGRAKRSGSGATNFSLLKQAGDVEENPGPTSMDWIWRILFLVGAATGAHSFEEVQLLESGGGLVQPGGSLRLSCAASGFTFSSYAMSWVRQAPGKGLEWVSSISGSGDYIYYADSVKGRFTISRDISKNTLYLQMNSLRAEDTAVYYCAKEGTGANSSLADYRGQGTLVTVSSTRASTKGPSVFPLAPSSKSTSGGTAALGCLVKDYFPEPVTVSWNSGALTSGVHTFPAVLQSSGLYSLSSVVTVPSSSLGTQTYICNVNHKPSNTKVDKRVEPKSCIPEDTFFPSPESSCDVKLVEKSFETDTNLNFQNLSVIGFRILLLKVAGFNLLMTLRLWSSRAKRSGSGVKQTLNFDLLKLAGDVESNPGPSRGHMTEYKPTVRLATRDDVPRAVRTLAAAFADYPATRHTVDPDRHIERVTELQELFLTRVGLDIGKVWVADDGAAVAVWTTPESVEAGAVFAEIGPRMAELSGSRLAAQQQMEGLLAPHRPKEPAWFLATVGVSPDHQGKGLGSAVVLPGVEAAERAGVPAFLETSAPRNLPFYERLGFTVTADVEVPEGPRTWCMTRKPGA
B4: 22195 (protein)
chain: MALPVTALLLPLALLLHAARPDIQMTQSPSSLSASVGDRVTITCKASDHINNWLAWYQQKPGQAPKLLIYGATTLETGVPSRFSGSGSGTDYTLTISSLQPEDFATYYCQQSWNTPWTFGQGTKLEIKRLEDLKNVFPPEVAVFEPSEAEISHTQKATLVCLATGFYPDHVELSWWVNGKEVHSGVCTDPQPLKEQPALNDSRYCLSSRLRVSATFWQNPRNHFRCQVQFYGLSENDEWTQDRAKPVTQIVSAEAWGRADCGFTSESYQQGVLSATILYEILLGKATLYAVLVSALVLMAMVKRKDSRGRAKRSGSGATNFSLLKQAGDVEENPGPTSATMDWIWRILFLVGAATGAHSGPGSDLGIKLLFAAAKGQDDEVRILLAAGADVNAKDFEGYTPLHVAAYDGHLEIVEVLLKAGADVNAKDSQGRTPLHEAAYSGHLEIVEVLLKAGADVNAQDDAGETPADLAAAWGHEDIAEVLQKGSGGGGSGGGGSGGGGSFEQVQLQQPGAELVKPGASVKMSCKASGYAFSSYWINWMKQKPGQGLEWIGQIYPGDGDTNYNGKFKGRATLTADTSSSTAYMQLSSLTSEDSAVYFCARSITTVVGCAMDYWGQGTSVTVSSTRIQNPDPAVYQLRDSKSSDKSVCLFTDFDSQTNVSQSKDSDVYITDKCVLDMRSMDFKSNSAVAWSNKSDFACANAFNNSIIPEDTFFPSPESSCDVKLVEKSFETDTNLNFQNLSVIGFRILLLKVAGFNLLMTLRLWSSRAKRSGSGVKQTLNFDLLKLAGDVESNPGPSRGHMTEYKPTVRLATRDDVPRAVRTLAAAFADYPATRHTVDPDRHIERVTELQELFLTRVGLDIGKVWVADDGAAVAVWTTPESVEAGAVFAEIGPRMAELSGSRLAAQQQMEGLLAPHRPKEPAWFLATVGVSPDHQGKGLGSAVVLPGVEAAERAGVPAFLETSAPRNLPFYERLGFTVTADVEVPEGPRTWCMTRKPGA
B5: 22197 (protein)
chain: B4 chain

Columns and labels:
Format in all cases: cell-based
[1] = test system: target antigen-expressing cell line; assay: Jurkat NFAT-GFP (JNG) assay: induction of NFAT promoter driven GFP expression; details: SAR-expressing JNG cells co-cultured with cell lines expressing their target antigen(s)
Protocol: Induction ofNFAT promoter driven GFP expression. […] Cellular supernatant is collected and assayed for the induction of cytokines (e.g., IL2).
(§1) Cellular supernatant is collected and assayed for the induction of cytokines (e.g., IL2).
(§2) JNG (Jurkat cells expressing EGFP under an NFAT promoter) were infected with lentiviral vectors encoding different single chain and multi-chain SARs by spinfection in the presence of 8 µg/ml of Polybrene® (Sigma, Catalog no. H9268). The Jurkat-NFAT-GFP cells are engineered in such a way that the IL-2 promoter, which carries NFAT binding sites, is cloned upstream of the GFP gene. These cells have been used to study signaling via TCR and CAR. The different SARs were stably expressed in Jurkat NFAT-GFP cells by lentiviral mediated gene transfer, followed by selection with puromycin or blasticidin. No drug selection was used in case the construct lacked an antibiotic resistance gene. The SAR-expressing Jurkat-NFAT-GFP cells were cocultured with the target cells at E:T ratio of approximately 1:2 for approximately 4 hours to 18 hours. When the interaction between SIRs and their target antigen results in activation of the NFAT pathway, GFP expression is induced. […] GFP expression was monitored by FACS analysis. The Jurkat-NFAT-GFP (parental) cells were used as control. The structure of different constructs can be determined based on their names. […] The sequence of the other constructs in the table can be similarly determined from their names and by referring to the different Tables of this disclosure that provide the names and SEQ ID NO of the different modules. Alternatively, the composition and modular architecture of the different SAR constructs can be determined from their sequences by bioinformatics tools, including using nucleic acid and amino acids homology searches. A SAR is considered positive in the assay in case the SAR expressing Jurkat-NFAT-GFP cells show greater % GFP positive cells when cultured with the target cell line as compared to parental Jurkat-NFAT-GFP cells. […] In general, the number +/-, +, 2+, 3+, 4+, 5+ refer to approximately 5%, 10%, 20%, 30%, 40% and 50% GFP positive cells. The % of GFP induction in the above assay is dependent not only the relative strength of the SAR but also, among other factors, on the relative level of expression of the SAR in the JNG cells and the relative level of expression of the target antigen in the target cell line. To control for the difference in gene transduction efficiency of the different SAR constructs, the experiment was conducted with JNG cells transduced with SAR constructs co-expressing a drug resistance gene (e.g., puromycin or PAC) followed by drug selection to generate a stable population of SAR-expressing cells. It is to be noted that the drug resistance gene (e.g., PAC) in the SAR constructs is optional and in vivo studies were conducted with SAR constructs lacking the PAC gene.

[2] = test system: RAJI-CD19-KO cells; assay: JNG assay, co-culture with RAJI-CD19-KO cells; details: co-culture with RAJI-CD19-KO cells
In short: (§3)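 Jurkat NFAT-GFP (JNG) cells stably transduced with SARs by lentivirus, with drug selection where the construct carried a resistance gene, then co-cultured with target cells at E:T ~1:2 for ~4–18 h. % GFP-positive cells measured by FACS against parental JNG; +/- to 5+ correspond to ~5–50% GFP-positive.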

[3] = test system: RAJI cells; assay: JNG assay, co-culture with RAJI cells; details: for NFAT-GFP ASSAY: Raji: JNG cells expressing construct, co-culture with Raji
In short: as §3

[4] = test system: SKOV-3 cells; assay: JNG assay, co-culture with SKOV-3 cells; details: co-culture with SKOV-3
Protocol: as §1, §2

Molecule	GFP induction / activity in JNG assay [1]	GFP induction / activity [2]	GFP induction / activity ([3]; co-culture with RAJI cells)	NFAT-GFP ASSAY: SKOV-3 [4]	NFAT-GFP ASSAY: Raji [3]
B1	best activity				
B2	effective GFP induction	effective GFP induction	effective GFP induction		
B3	good activity				
B4				4+ (refer to approximately 5%, 10%, 20%, 30%, 40% and 50% GFP positive cells)	4+ (refer to approximately 5%, 10%, 20%, 30%, 40% and 50% GFP positive cells)
B5				5+ (refer to approximately 5%, 10%, 20%, 30%, 40% and 50% GFP positive cells)	2+ (refer to approximately 5%, 10%, 20%, 30%, 40% and 50% GFP positive cells)
